Test [1] deals with T1, HMK-His6-σ70, 32P-labeled (pHMK-His6-σ70) (Escherichia coli, UniProt P00579 1-613).
T1 construct: range 1-613; also called ^32P-labeled ?^70; HMK-?^70
Briefly: far-Western of whole cell lysate, 32P-σ70 probe.

In test [2] the target is T1, HMK-His6-σ70, 32P-labeled …. In words: ordered fragment ladder far-Western, 32P-σ70 probe.
Test [3] shares this target. In words: far-Western binding, 32P-σ70 probe; grade.
The target of test [4] is T2, σ70, native, untagged (pLN12) (Escherichia coli, UniProt P00579 1-613).
T2 construct: range 1-613; also called native ?^70
In words: mixed with σ70 and passed over Ni-NTA (control).

Test [5] has as its target T3, σ70 (C132S, C291S, C295S, S442C), labeled with Eu-DTPA-AMCA (pSigma70(442C)) (Escherichia coli, UniProt P00579 1-613).
T3 construct: also called labeled ?^70
In words: electrophoretic mobility shift (EMS) assay, native gel.

The target in test [6] is T3, σ70 (C132S, C291S, C295S, S442C), …. In words: EMS assay, competition with labeled β′-fragment.

B1: β′100-309, untagged (pTA530) (enzyme)
chain: ERMGHIELASPTAHIWFLKSLPSRIGLLLDMPLRDIERVLYFESYVVIEGGMTNLERQQILTEEQYLDALEEFGDEFDAKMGAEAIQALLKSMDLEQECEQLREELNETNSETKRKKLTKRIKLLEAFVQSGNKPEWMILTVLPVLPPDLRPLVPLDGGRFATSDLNDLYRRVINRNNRLKRLLDLAAPDIIVRNEKRMLQEAVDALLDN
As for B1, in test [1], the binding result is recorded as “binds”.

B2: β′60-309, untagged (pTA528) (enzyme)
chain: RIFGPVKDYECLCGKYKRLKHRGVICEKCGVEVTQTKVRRERMGHIELASPTAHIWFLKSLPSRIGLLLDMPLRDIERVLYFESYVVIEGGMTNLERQQILTEEQYLDALEEFGDEFDAKMGAEAIQALLKSMDLEQECEQLREELNETNSETKRKKLTKRIKLLEAFVQSGNKPEWMILTVLPVLPPDLRPLVPLDGGRFATSDLNDLYRRVINRNNRLKRLLDLAAPDIIVRNEKRMLQEAVDALLDN
For B2, the binding result in test [1] is “binds”.

B3: N-terminally His6-tagged β′ 1-309, hydroxylamine cleavage fragment (from pTA499) (enzyme)
chain: HHHHHHMKDLLKFLKAQTKTEEFDAIKIALASPDMIRSWSFGEVKKPETINYRTFKPERDGLFCARIFGPVKDYECLCGKYKRLKHRGVICEKCGVEVTQTKVRRERMGHIELASPTAHIWFLKSLPSRIGLLLDMPLRDIERVLYFESYVVIEGGMTNLERQQILTEEQYLDALEEFGDEFDAKMGAEAIQALLKSMDLEQECEQLREELNETNSETKRKKLTKRIKLLEAFVQSGNKPEWMILTVLPVLPPDLRPLVPLDGGRFATSDLNDLYRRVINRNNRLKRLLDLAAPDIIVRNEKRMLQEAVDALLDN
For the molecule B3, the binding result in test [2] is “binds”.

B4: β′1-319 wild type, untagged (pTA620) (enzyme)
chain: MKDLLKFLKAQTKTEEFDAIKIALASPDMIRSWSFGEVKKPETINYRTFKPERDGLFCARIFGPVKDYECLCGKYKRLKHRGVICEKCGVEVTQTKVRRERMGHIELASPTAHIWFLKSLPSRIGLLLDMPLRDIERVLYFESYVVIEGGMTNLERQQILTEEQYLDALEEFGDEFDAKMGAEAIQALLKSMDLEQECEQLREELNETNSETKRKKLTKRIKLLEAFVQSGNKPEWMILTVLPVLPPDLRPLVPLDGGRFATSDLNDLYRRVINRNNRLKRLLDLAAPDIIVRNEKRMLQEAVDALLDNGRRGRAITGS
As for B4, the binding result in test [3] was “binds”.

B5: β′1-319 K280E (pTA613) (enzyme)
chain: MKDLLKFLKAQTKTEEFDAIKIALASPDMIRSWSFGEVKKPETINYRTFKPERDGLFCARIFGPVKDYECLCGKYKRLKHRGVICEKCGVEVTQTKVRRERMGHIELASPTAHIWFLKSLPSRIGLLLDMPLRDIERVLYFESYVVIEGGMTNLERQQILTEEQYLDALEEFGDEFDAKMGAEAIQALLKSMDLEQECEQLREELNETNSETKRKKLTKRIKLLEAFVQSGNKPEWMILTVLPVLPPDLRPLVPLDGGRFATSDLNDLYRRVINRNNRLERLLDLAAPDIIVRNEKRMLQEAVDALLDNGRRGRAITGS
On to B5, for which the binding result in test [3] is on record as “binds”.

B6: β′1-319 N309D (pTA619) (enzyme)
chain: MKDLLKFLKAQTKTEEFDAIKIALASPDMIRSWSFGEVKKPETINYRTFKPERDGLFCARIFGPVKDYECLCGKYKRLKHRGVICEKCGVEVTQTKVRRERMGHIELASPTAHIWFLKSLPSRIGLLLDMPLRDIERVLYFESYVVIEGGMTNLERQQILTEEQYLDALEEFGDEFDAKMGAEAIQALLKSMDLEQECEQLREELNETNSETKRKKLTKRIKLLEAFVQSGNKPEWMILTVLPVLPPDLRPLVPLDGGRFATSDLNDLYRRVINRNNRLKRLLDLAAPDIIVRNEKRMLQEAVDALLDDGRRGRAITGS
As to B6, the binding result in test [3] is recorded as “binds”.

B7: β′1-319 Y269A (pTA611) (enzyme)
chain: MKDLLKFLKAQTKTEEFDAIKIALASPDMIRSWSFGEVKKPETINYRTFKPERDGLFCARIFGPVKDYECLCGKYKRLKHRGVICEKCGVEVTQTKVRRERMGHIELASPTAHIWFLKSLPSRIGLLLDMPLRDIERVLYFESYVVIEGGMTNLERQQILTEEQYLDALEEFGDEFDAKMGAEAIQALLKSMDLEQECEQLREELNETNSETKRKKLTKRIKLLEAFVQSGNKPEWMILTVLPVLPPDLRPLVPLDGGRFATSDLNDLARRVINRNNRLKRLLDLAAPDIIVRNEKRMLQEAVDALLDNGRRGRAITGS
On to B7, for which the binding result in test [3] is reported as “binds”.

B8: β′ mutant N274P (enzyme)
chain: MKDLLKFLKAQTKTEEFDAIKIALASPDMIRSWSFGEVKKPETINYRTFKPERDGLFCARIFGPVKDYECLCGKYKRLKHRGVICEKCGVEVTQTKVRRERMGHIELASPTAHIWFLKSLPSRIGLLLDMPLRDIERVLYFESYVVIEGGMTNLERQQILTEEQYLDALEEFGDEFDAKMGAEAIQALLKSMDLEQECEQLREELNETNSETKRKKLTKRIKLLEAFVQSGNKPEWMILTVLPVLPPDLRPLVPLDGGRFATSDLNDLYRRVIPRNNRLKRLLDLAAPDIIVRNEKRMLQEAVDALLDNGRRGRAITGS
Consider B8, for which the binding result in test [3] is “no binding”.

B9: β′ mutant E301P (enzyme)
chain: MKDLLKFLKAQTKTEEFDAIKIALASPDMIRSWSFGEVKKPETINYRTFKPERDGLFCARIFGPVKDYECLCGKYKRLKHRGVICEKCGVEVTQTKVRRERMGHIELASPTAHIWFLKSLPSRIGLLLDMPLRDIERVLYFESYVVIEGGMTNLERQQILTEEQYLDALEEFGDEFDAKMGAEAIQALLKSMDLEQECEQLREELNETNSETKRKKLTKRIKLLEAFVQSGNKPEWMILTVLPVLPPDLRPLVPLDGGRFATSDLNDLYRRVINRNNRLKRLLDLAAPDIIVRNEKRMLQPAVDALLDNGRRGRAITGS
For B9, the binding result in test [3] is “no binding”.

B10: β′1-319 N266D (pTA610) (enzyme)
chain: MKDLLKFLKAQTKTEEFDAIKIALASPDMIRSWSFGEVKKPETINYRTFKPERDGLFCARIFGPVKDYECLCGKYKRLKHRGVICEKCGVEVTQTKVRRERMGHIELASPTAHIWFLKSLPSRIGLLLDMPLRDIERVLYFESYVVIEGGMTNLERQQILTEEQYLDALEEFGDEFDAKMGAEAIQALLKSMDLEQECEQLREELNETNSETKRKKLTKRIKLLEAFVQSGNKPEWMILTVLPVLPPDLRPLVPLDGGRFATSDLDDLYRRVINRNNRLKRLLDLAAPDIIVRNEKRMLQEAVDALLDNGRRGRAITGS
As for B10, the binding result in test [3] was “binds”.

B11: β′ mutant L299D (enzyme)
chain: MKDLLKFLKAQTKTEEFDAIKIALASPDMIRSWSFGEVKKPETINYRTFKPERDGLFCARIFGPVKDYECLCGKYKRLKHRGVICEKCGVEVTQTKVRRERMGHIELASPTAHIWFLKSLPSRIGLLLDMPLRDIERVLYFESYVVIEGGMTNLERQQILTEEQYLDALEEFGDEFDAKMGAEAIQALLKSMDLEQECEQLREELNETNSETKRKKLTKRIKLLEAFVQSGNKPEWMILTVLPVLPPDLRPLVPLDGGRFATSDLNDLYRRVINRNNRLKRLLDLAAPDIIVRNEKRMDQEAVDALLDNGRRGRAITGS
As for B11, the binding result in test [3] was “no binding”.

B12: β′ mutant V272D (enzyme)
chain: MKDLLKFLKAQTKTEEFDAIKIALASPDMIRSWSFGEVKKPETINYRTFKPERDGLFCARIFGPVKDYECLCGKYKRLKHRGVICEKCGVEVTQTKVRRERMGHIELASPTAHIWFLKSLPSRIGLLLDMPLRDIERVLYFESYVVIEGGMTNLERQQILTEEQYLDALEEFGDEFDAKMGAEAIQALLKSMDLEQECEQLREELNETNSETKRKKLTKRIKLLEAFVQSGNKPEWMILTVLPVLPPDLRPLVPLDGGRFATSDLNDLYRRDINRNNRLKRLLDLAAPDIIVRNEKRMLQEAVDALLDNGRRGRAITGS
Take B12: in test [3], the binding result is “no binding”.

B13: β′1-309, untagged (pTA518) (enzyme)
chain: MKDLLKFLKAQTKTEEFDAIKIALASPDMIRSWSFGEVKKPETINYRTFKPERDGLFCARIFGPVKDYECLCGKYKRLKHRGVICEKCGVEVTQTKVRRERMGHIELASPTAHIWFLKSLPSRIGLLLDMPLRDIERVLYFESYVVIEGGMTNLERQQILTEEQYLDALEEFGDEFDAKMGAEAIQALLKSMDLEQECEQLREELNETNSETKRKKLTKRIKLLEAFVQSGNKPEWMILTVLPVLPPDLRPLVPLDGGRFATSDLNDLYRRVINRNNRLKRLLDLAAPDIIVRNEKRMLQEAVDALLDN
Turning to B13, the binding result in test [4] and in test [1] was “binds” throughout.

B14: HMK-His6-β′(100-309), IC5-labeled (pTA133) (enzyme)
chain: MARRASVHHHHHHMERMGHIELASPTAHIWFLKSLPSRIGLLLDMPLRDIERVLYFESYVVIEGGMTNLERQQILTEEQYLDALEEFGDEFDAKMGAEAIQALLKSMDLEQECEQLREELNETNSETKRKKLTKRIKLLEAFVQSGNKPEWMILTVLPVLPPDLRPLVPLDGGRFATSDLNDLYRRVINRNNRLKRLLDLAAPDIIVRNEKRMLQEAVDALLDN
notes: also called labeled β′-fragment; IC5-labeled β′-fragment
With B14, the binding result in test [5] is on record as “binds”.

B15: HMK-His6-β′(100-309), unlabeled (pTA133) (enzyme)
chain: MARRASVHHHHHHMERMGHIELASPTAHIWFLKSLPSRIGLLLDMPLRDIERVLYFESYVVIEGGMTNLERQQILTEEQYLDALEEFGDEFDAKMGAEAIQALLKSMDLEQECEQLREELNETNSETKRKKLTKRIKLLEAFVQSGNKPEWMILTVLPVLPPDLRPLVPLDGGRFATSDLNDLYRRVINRNNRLKRLLDLAAPDIIVRNEKRMLQEAVDALLDN
notes: also called unlabeled β′-fragment
Turning to B15, the binding result in test [6] is “binds”.

The values above are taken from US20030104423A1 (WISCONSIN ALUMNI RESEARCH FOUNDATION, published 2003).
